# Measurements from publication PMC7954794, “Protein context shapes the specificity of SH3 domain-mediated interactions in vivo” (Nature Communications, 2021).
# B1: S. cerevisiae Abp1 (full length; SH3 domain 535-592 mutated) / Hua2 (parent)
# chain 1: MALEPIDYTTHSREIDAEYLKIVRGSDPDTTWLIISPNAKKEYEPESTGSSFHDFLQLFDETKVQYGLARVSPPGSDVEKIIIIGWCPDSAPLKTRASFAANFAAVANNLFKGYHVQVTARDEDDLDENELLMKISNAAGARYSIQTSSKQQGKASTPPVKKSFTPSKSPAPVSKKEPVKTPSPAPAAKISSRVNDNNDDDDWNEPELKERDFDQAPLKPNQSSYKPIGKIDLQKVIAEEKAKEDPRLVQKPTAAGSKIDPSSDIANLKNESKLKRDSEFNSFLGTTKPPSMTESSLKNDDDKVIKGFRNEKSPAQLWAERKAKQNSGNAETKAEAPKPEVPEDEPEGEPDVKDLKSKFEGLAASEKEEEEMENKFAPPPKKSEPTIISPKPFSKPQEPVKAEEAEQPKTDYKKIGNPLPGMHIEADNEEEPEENDDDWDDDEDEAAQPPLPSRNVASGAPVQKEEPEQEEIAPSLPSRNSIPAPKQEEAPEQAPEEEIEEEAEEAAPQLPSRSSAAPPPPPRRATPEKKPKENPWATAEYDYDAAEDNELTFVENDKIINIEFVDDDWWLGELEKDGSKGLFPSNYVSLGN
# chain 2: MQQTKFGKMYLDHDSVVEYSEDEIVEADRITLGYKKRLSMIENQMRHLLEDFSLDVQQIEPILADLQKYYDAFLQLLQKRNKSLQCKRSTHQPVPSPMNSQTSTNAKVNLSGKLMKFQLNSVQKFDEENILRILQNKIEFEHYFQIDKGKKQKVLLLAVYQCLNGPTRLHKVLNIEGIIHNNSIRTILGKQVSSSKWTVFLYDVKLVLLAHRQDVPNLETSKMIVRYGDLFPCALYFKDHTAY
# Variants of: B1
# Test: DHFR protein-fragment complementation in yeast (Abp1-DHFR F[1,2] x partner-DHFR F[3]), deep mutational scanning, second methotrexate selection vs reference
# Settings: with Hua2; S. cerevisiae, DHFR-PCA selection in liquid with methotrexate at 30 C, two 72 h selections (the score uses the second); reference = the pre-selection culture; not an affinity; value at the no-binding floor (a bound); scale: DMS score: mean over two replicates of log2(f_test/f_ref + 0.5)/ln 2, minus the synonymous-codon median
row,Variant,screen value
1,chain 1 Y587G,-3
2,chain 1 Y587P,< -3.06
3,chain 1 Y587E,-2.98
4,chain 1 D557R,< -3.06
5,chain 1 D557F,< -3.06
6,chain 1 D557W,< -3.06
7,chain 1 D557I,< -3.06
8,chain 1 D557L,< -3.06
9,chain 1 Y541P,< -3.06
10,chain 1 I560P,< -3.06
11,chain 1 L590N,< -3.06
12,chain 1 L590G,-3.05
13,chain 1 L590D,< -3.06
14,chain 1 L551K,< -3.06
15,chain 1 L551H,-2.98
16,chain 1 L551A,-3.04
17,chain 1 L551Y,< -3.06
18,chain 1 L551S,< -3.06
19,chain 1 L551W,< -3.06
20,chain 1 L551D,< -3.06
21,chain 1 L551G,< -3.06
22,chain 1 E563P,-3.04
23,chain 1 P584E,< -3.06
24,chain 1 P584G,< -3.06
25,chain 1 P584K,< -3.06
26,chain 1 P584C,-3.02

row,Variant,screen value
1,chain 1 P584W,-3.02
2,chain 1 P584V,< -3.06
3,chain 1 P584I,< -3.06
4,chain 1 P584Q,-3.01
5,chain 1 P584M,< -3.06
6,chain 1 P584F,-3
7,chain 1 P584D,< -3.06
8,chain 1 G578I,< -3.06
9,chain 1 G578W,-3.01
10,chain 1 G578P,< -3.06
11,chain 1 A537H,< -3.06
12,chain 1 A537L,-3.02
13,chain 1 A537E,-3.04
14,chain 1 A537I,-3.01
15,chain 1 A537W,< -3.06
16,chain 1 A537M,< -3.06
17,chain 1 A537Y,< -3.06
18,chain 1 A537N,< -3.06
19,chain 1 A537Q,< -3.06
20,chain 1 A537R,-3.04
21,chain 1 E573P,< -3.06
22,chain 1 N561V,-3.02
23,chain 1 N561F,< -3.06
24,chain 1 N561L,-3.02
25,chain 1 N561P,< -3.06
26,chain 1 N561W,< -3.06

row,Variant,screen value
1,chain 1 E540P,-3
2,chain 1 S585F,-2.99
3,chain 1 S585D,-3.03
4,chain 1 S585W,-3.01
5,chain 1 S585L,-2.99
6,chain 1 S585Y,< -3.06
7,chain 1 F583A,< -3.06
8,chain 1 F583D,< -3.06
9,chain 1 F583H,< -3.06
10,chain 1 F583M,< -3.06
11,chain 1 F583K,< -3.06
12,chain 1 F583T,< -3.06
13,chain 1 F583W,< -3.06
14,chain 1 F583Q,< -3.06
15,chain 1 F583E,< -3.06
16,chain 1 F583G,< -3.06
17,chain 1 F583R,-3.02
18,chain 1 F583P,< -3.06
19,chain 1 G572C,< -3.06
20,chain 1 G572K,< -3.06
21,chain 1 G572M,< -3.06
22,chain 1 G572Y,< -3.06
23,chain 1 G572D,< -3.06
24,chain 1 G572S,< -3.06
25,chain 1 G572F,< -3.06
26,chain 1 G572Q,< -3.06

row,Variant,screen value
1,chain 1 G572P,< -3.06
2,chain 1 G572T,-3.04
3,chain 1 G572H,< -3.06
4,chain 1 G572A,-3.02
5,chain 1 G572I,< -3.06
6,chain 1 G572L,-3.04
7,chain 1 V554P,-3.04
8,chain 1 W570H,< -3.06
9,chain 1 W570E,-3.03
10,chain 1 W570K,< -3.06
11,chain 1 W570A,< -3.06
12,chain 1 W570P,< -3.06
13,chain 1 W570T,< -3.06
14,chain 1 W570M,-3.02
15,chain 1 W570Q,-3.01
16,chain 1 W570I,< -3.06
17,chain 1 W570D,< -3.06
18,chain 1 E550S,< -3.06
19,chain 1 E550C,< -3.06
20,chain 1 E550R,-3
21,chain 1 E550W,< -3.06
22,chain 1 E550N,< -3.06
23,chain 1 E550P,< -3.06
24,chain 1 E550T,-3.03

# Same assay, conditions: with Hua2; S. cerevisiae, DHFR-PCA selection in liquid with methotrexate at 30 C, two 72 h selections (the score uses the second); reference = the pre-selection culture; not an affinity; scale: DMS score: mean over two replicates of log2(f_test/f_ref + 0.5)/ln 2, minus the synonymous-codon median
row,Variant,screen value
1,chain 1 D557C,-2.97
2,chain 1 D557N,-1.63
3,chain 1 D557K,-2.91
4,chain 1 D557M,-2.77
5,chain 1 D557G,-2.9
6,chain 1 D557A,-2.31
7,chain 1 Y541T,-2.3
8,chain 1 D542L,-1.84
9,chain 1 I560D,-2.15
10,chain 1 I560W,-2.4
11,chain 1 I560A,-1.35
12,chain 1 E575G,-1.41
13,chain 1 E575P,-1.33
14,chain 1 L571G,-1.24
15,chain 1 L571P,-2.25
16,chain 1 L590K,-2.78
17,chain 1 L590Y,-1.64
18,chain 1 L590A,-2.75
19,chain 1 L590W,-1.2
20,chain 1 L590C,-2.24
21,chain 1 L590R,-2.85
22,chain 1 W536K,-1.76

row,Variant,screen value
1,chain 1 W536G,-2.23
2,chain 1 W536L,-1.66
3,chain 1 W536A,-1.3
4,chain 1 W536P,-2.87
5,chain 1 L551Q,-2.06
6,chain 1 L551R,-2.52
7,chain 1 L551T,-2.85
8,chain 1 E563Y,-2.45
9,chain 1 E563W,-2.93
10,chain 1 E563F,-1.96
11,chain 1 P584R,-2.94
12,chain 1 P584T,-2.19
13,chain 1 G578Y,-2.41
14,chain 1 G578C,-1.66
15,chain 1 G578F,-2.12
16,chain 1 G578D,-1.53
17,chain 1 A537V,-2.01
18,chain 1 A537F,-2.93
19,chain 1 A537P,-2.58
20,chain 1 A537T,-1.87
21,chain 1 E573L,-2.11
22,chain 1 E573R,-1.65

row,Variant,screen value
1,chain 1 N561E,-1.17
2,chain 1 N561Q,-1.98
3,chain 1 N561I,-1.97
4,chain 1 N561M,-2.43
5,chain 1 F583C,-2.31
6,chain 1 G572R,-2.78
7,chain 1 G572E,-2.36
8,chain 1 G572W,-2.24
9,chain 1 N556V,-2.96
10,chain 1 N556W,-1.22
11,chain 1 N556P,-2.97
12,chain 1 N556I,-2.52
13,chain 1 W570F,-2.79
14,chain 1 W570L,-2.25
15,chain 1 S579Y,-2.71
16,chain 1 S579I,-1.27
17,chain 1 S579P,-2.21
18,chain 1 T538D,-2.65
19,chain 1 T538G,-2.9
20,chain 1 E550D,-1.79
21,chain 1 E550A,-2.77
